Results taken from patent US20110318808.

Columns and labels:
[1] = target: T1, fluorophore/quencher substrate peptide DABCYL-YGENVTFQGSK-EDANS
T1 chain: YGENVTFQGSK

[2] = target: T2, fusion substrate protein with the ENVTFQG consensus recognition sequence
T2 chain: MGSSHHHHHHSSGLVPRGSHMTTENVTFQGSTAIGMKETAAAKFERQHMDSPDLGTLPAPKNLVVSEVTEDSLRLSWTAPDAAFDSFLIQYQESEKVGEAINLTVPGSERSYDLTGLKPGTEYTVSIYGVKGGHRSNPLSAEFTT

[3] = target: T3, fusion substrate protein with the PVA NIa protease consensus sequence with a P2' proline (ENVTFQGP)
T3 chain: ENVTFQGP

[4] = target: T4, fusion substrate protein with the TEV NIa protease recognition sequence (ENLYGQGS)
T4 chain: ENLYGQGS

[5] = target: T5, fusion substrate protein with the TVMV NIa protease recognition sequence (ETVRFQGS)
T5 chain: ETVRFQGS

[6] = target: T6, synthetic peptide SEAVYTQGSS (NIa/NIb junction recognition sequence EAVYTQG)
T6 chain: SEAVYTQGSS

[7] = target: T7, synthetic peptide SEMVTNQSSS (recognition sequence EMVTNQS)
T7 chain: SEMVTNQSSS

[8] = target: T8, synthetic peptide SENVTFQGSS (consensus recognition sequence ENVTFQG)
T8 chain: SENVTFQGSS

[9] = target: T9, synthetic peptide SENVTKQLSS (recognition sequence ENVTKQL)
T9 chain: SENVTKQLSS

[10] = target: T10, synthetic peptide SEVVLFQASS (P3/6K1 junction recognition sequence EVVLFQA)
T10 chain: SEVVLFQASS

B1: potato virus A (PVA) NIa protease, wild type (protein)
chain: STSMFRGVRDYNPISSVICQLENESEGRTTQLFGLGFGPFIITNQHLFVRNNGSLTVRSQMGVFKVNSTVTLQMRPVEGRDVLIIKMPKDFPPFPQRLKFRQPTHSEKVCLILTNFQQKSSSSMVSETSHIIPKENTYFWKHWISTKEGHCGSPIVSTTDGAILGIHSLSNMTNTSNYFACFPKGFTETYLATESAHEWVKGWKFNASNVCWGSFHLQDSKPTKEFKTVKLV
[1]
  Km (uM), DTT +: 178 µM
  Relative Kcat/Km, DTT +: 100
  Vmax (RFU/min), DTT +: 78500 RFU/min
[2]
  proteolytic cleavage of the substrate monitored by SDS-PAGE: cleaved the substrate to completion
[3]
  Cleaved by NIa (fusion substrate protein): No
[4]
  Cleaved by NIa (fusion substrate protein): No
[5]
  Cleaved by NIa (fusion substrate protein): Yes
  rate of cleavage of fusion substrate: able to cleave the fusion substrate with the TVMV NIa protease recognition sequence, although at a much lower rate than the PVA NIa protease consensus sequence
[6]
  Cleaved by NIa (synthetic peptide, RP-HPLC and LC-MS): Yes
[7]
  Cleaved by NIa (synthetic peptide, RP-HPLC and LC-MS): No
[8]
  Cleaved by NIa (synthetic peptide, RP-HPLC and LC-MS): Yes
[9]
  Cleaved by NIa (synthetic peptide, RP-HPLC and LC-MS): No
[10]
  Cleaved by NIa (synthetic peptide, RP-HPLC and LC-MS): Yes
